Where no end group is shown, it is not given here. fluorescein = fluorescein label on the N-terminus of the peptide

Holding throughout (conditions): both partners purified
Test [1] addresses T1, human wt-ERα LBD (estrogen receptor alpha ligand-binding domain, amino acids 302-552) (human, UniProt P03372 302-552).
T1 sequence (looked up): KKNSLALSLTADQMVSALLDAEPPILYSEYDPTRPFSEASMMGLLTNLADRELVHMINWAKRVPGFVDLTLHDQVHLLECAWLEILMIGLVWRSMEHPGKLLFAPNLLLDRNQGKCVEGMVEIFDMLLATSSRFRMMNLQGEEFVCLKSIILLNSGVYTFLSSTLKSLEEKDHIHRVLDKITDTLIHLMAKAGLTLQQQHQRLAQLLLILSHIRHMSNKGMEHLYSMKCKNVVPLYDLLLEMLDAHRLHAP
As to the kind of experiment: fluorescence polarisation; fluorescence anisotropy; 4 nM fluorescein-SRC-1 NR2 peptide, LBD diluted 2-fold from 10 uM (ERα) or 20 uM (ERβ); with OHT (4-hydroxytamoxifen) at 20 uM (ERα) or 40 uM (ERβ); 20 mM Tris pH 8.0, 150 mM NaCl, 5 mM DTT, 10% glycerol. On the technique in general: In fluorescence polarisation assays a small probe gives low polarisation when free and higher when bound to something large.

Test [2] addresses T2, human wt-ERβ LBD (estrogen receptor beta ligand-binding domain, amino acids 261-502) (human, UniProt Q92731 261-502).
T2 construct: Cloned into pET-32a; N-terminal thioredoxine-hexahistidine tag removed with TEV protease; not shown: thioredoxin, N-terminal, cleaved; His6, N-terminal, cleaved
The test is described as above.

The target in test [3] is T2, human wt-ERβ LBD (estrogen receptor …). As to the kind of experiment: fluorescence polarisation; fluorescence anisotropy; 4 nM fluorescein-SRC-1 NR2 peptide, LBD diluted 2-fold from 10 uM (ERα) or 20 uM (ERβ); with chlordecone at 20 uM (ERα) or 40 uM (ERβ); 20 mM Tris pH 8.0, 150 mM NaCl, 5 mM DTT, 10% glycerol.
Test [4] addresses T1, human wt-ERα LBD (estrogen receptor …). In words: fluorescence polarisation; fluorescence anisotropy; 4 nM fluorescein-SRC-1 NR2 peptide, LBD diluted 2-fold from 10 uM (ERα) or 20 uM (ERβ); with DDE at 20 uM (ERα) or 40 uM (ERβ); 20 mM Tris pH 8.0, 150 mM NaCl, 5 mM DTT, 10% glycerol.
Test [5] concerns the target T2, human wt-ERβ LBD (estrogen receptor …). In words: fluorescence polarisation; fluorescence anisotropy; 4 nM fluorescein-SRC-1 NR2 peptide, LBD diluted 2-fold from 10 uM (ERα) or 20 uM (ERβ); with 4-OP at 20 uM (ERα) or 40 uM (ERβ); 20 mM Tris pH 8.0, 150 mM NaCl, 5 mM DTT, 10% glycerol.
Test [6] shares this target. As to the kind of experiment: fluorescence polarisation; fluorescence anisotropy; 4 nM fluorescein-SRC-1 NR2 peptide, LBD diluted 2-fold from 10 uM (ERα) or 20 uM (ERβ); with HPTE at 20 uM (ERα) or 40 uM (ERβ); 20 mM Tris pH 8.0, 150 mM NaCl, 5 mM DTT, 10% glycerol.
Test [7] addresses T1, human wt-ERα LBD (estrogen receptor …). In words: fluorescence polarisation; fluorescence anisotropy; 4 nM fluorescein-SRC-1 NR2 peptide, LBD diluted 2-fold from 10 uM (ERα) or 20 uM (ERβ); with BPC at 20 uM (ERα) or 40 uM (ERβ); 20 mM Tris pH 8.0, 150 mM NaCl, 5 mM DTT, 10% glycerol.
In test [8] the target is T2, human wt-ERβ LBD (estrogen receptor …). The description is as above.
The target in test [9] is T1, human wt-ERα LBD (estrogen receptor …). In words: fluorescence polarisation; fluorescence anisotropy; 4 nM fluorescein-SRC-1 NR2 peptide, LBD diluted 2-fold from 10 uM (ERα) or 20 uM (ERβ); with BPA at 20 uM (ERα) or 40 uM (ERβ); 20 mM Tris pH 8.0, 150 mM NaCl, 5 mM DTT, 10% glycerol.
Test [10] concerns the target T2, human wt-ERβ LBD (estrogen receptor …). Described as above.
Test [11] has the same target. As to the kind of experiment: fluorescence polarisation; fluorescence anisotropy; 4 nM fluorescein-SRC-1 NR2 peptide, LBD diluted 2-fold from 10 uM (ERα) or 20 uM (ERβ); with TCBPA at 20 uM (ERα) or 40 uM (ERβ); 20 mM Tris pH 8.0, 150 mM NaCl, 5 mM DTT, 10% glycerol.

T2 sequence (Q92731 261-502): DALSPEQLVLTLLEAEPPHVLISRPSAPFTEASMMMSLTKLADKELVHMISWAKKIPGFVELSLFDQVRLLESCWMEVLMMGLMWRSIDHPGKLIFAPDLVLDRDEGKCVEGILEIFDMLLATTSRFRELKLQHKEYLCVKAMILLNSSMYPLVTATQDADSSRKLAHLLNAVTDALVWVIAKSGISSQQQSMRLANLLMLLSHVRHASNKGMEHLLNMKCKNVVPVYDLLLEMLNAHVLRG

B1: fluorescein-RHKILHRLLQEGS peptide corresponding to the NR box 2-binding motif of SRC-1 (peptide)
peptide: fluorescein-RHKILHRLLQEGS
notes: also called SRC-1 NR2 peptide; fluorescein-labeled SRC-1 NR2 peptide; source: bought: EZbiolab
As for B1, the Kd (usually the free concentration of one partner at which half of the binding sites on the other are occupied at equilibrium, for simple one-to-one binding) was determined as 23.6 µM in test [1]; 38.8 µM in test [2]; 9.13 µM in test [3]; 4.1 µM in test [4]; 1.55 µM in [5]; 10.9 µM in test [6]. For the same molecule, the Kd amounted to 9.07 µM in test [7]; 6.32 µM in test [8]; 1.76 µM in test [9]; 1.31 µM in test [10]; 4.33 µM in test [11].

These data come from PMC4256047, “Structural and Functional Profiling of Environmental Ligands for Estrogen Receptors” (Environmental Health Perspectives, 2014).
